Consider three molecules from patent US20250161505A1, “CD206 Targeted Peptide Conjugates and Methods of Using the Same” (Riptide Bioscience, Inc., priority 2022, published 2025).

Where a SMILES comes first, the peptide text is derived from it. The star is where a group is joined. DOTA = O=C(O)CN1CCN(CC(=O)O)CCN(CC(=O)*)CCN(CC(=O)O)CC1

The format of data set [1] is in vitro ADME. Conditions: mouse, serum.
Description: Labeling of RP-832 and MART-1 with ^68Ga was accomplished by adding 10 μg of peptide to 500 μCi of ^68GaCl3 in 50 μL of 1 M sodium acetate buffer (pH 4.5). The reactions were incubated in a thermomixer at 95 degrees Celsius for 14 minutes with 300 rpm agitation. Incorporation of the ^68Ga was determined by radio-High Performance Liquid Chromatography (HPLC) immediately after the reaction. Analysis was performed using a C-18 column. The gradient elution system utilized mobile phase A (100% water 0.1% TFA) and mobile phase C (Acetonitrile containing 0.1% TFA) with a flow rate of 1.0 mL/min. The gradient started with 100% A and was increased to 100% C over 6.67 minutes and then returned to the initial gradient conditions within 4.66 minutes. […] The mixtures were incubated at 37 degrees Celsius with 400 rpm agitation up to three hours. Aliquots were removed at different time points (30 minutes, 1, 2, 3 h) to evaluate stability and analyzed using radio-HPLC as described above. All experiments were completed in triplicate.
Data set [2] can be described thus: in vivo. On the set-up: species or system BALB/c mice. Conditions: BALB/c, mouse, total radioactivity. As for the experimental part: (§1) 4T1 cells, a mouse breast cancer cell line (ATCC), and CT26 cells, a mouse colon carcinoma cell line (ATCC), were cultured in RPMI-1640 medium (ATCC) with 10 percent fetal bovine serum and 0.1 percent gentamicin at 37 degrees Celsius with 5 percent CO2. Wild-type BALB/c mice (Charles River) were used for syngeneic 4T1 and CT26 tumor models and were subcutaneously injected in the shoulder with 200,000 4T1 cells and 2×10^6 CT26 cells (with Matrigel). Tumors were allowed to grow for 10 days. Dynamic imaging studies were performed with a GNEXT small animal PET/CT (SOFIE). […] After 45 minutes, a high-resolution CT scan was obtained for anatomical reference. […] After 1 hour, a high-resolution CT scan was obtained for anatomical reference. During imaging, mice were anesthetized with 2.5 percent isoflurane/oxygen. The PET data was reconstructed into 5-minute time frames. Regions of interest (ROI) were drawn based on the CT anatomical guidelines. The mean standardized uptake value (SUV) was quantified using VivoQuant software with the equation: Where C is the activity concentration in tissue, dose is the injected dose, and weight is the body weight of the mouse. Statistical analysis was conducted with Graphpad Prism software.

Data set [3] deals with syngeneic 4T1 tumors. The experiment in a line: in vivo. On the set-up: species or system BALB/c mice. Conditions: mouse. How it is done:
as §1

Data set [4] deals with syngeneic CT26 tumors. The experiment in a line: in vivo. On the set-up: species or system BALB/c mice. Conditions: mouse. As for the experimental part: as §1
Data set [5] can be described thus: in vivo. Further details: species or system BALB/c mice. Conditions: BALB/c, mouse, total radioactivity, average percent injected dose per gram of organ. How it is done:
4T1 cells, a mouse breast cancer cell line (ATCC), and CT26 cells, a mouse colon carcinoma cell line (ATCC), were cultured in RPMI-1640 medium (ATCC) with 10 percent fetal bovine serum and 0.1 percent gentamicin at 37 degrees Celsius with 5 percent CO2. Wild-type BALB/c mice (Charles River) were used for syngeneic 4T1 and CT26 tumor models and were subcutaneously injected in the shoulder with 200,000 4T1 cells and 2×10^6 CT26 cells (with Matrigel). Tumors were allowed to grow for 10 days. Following the [^68Ga]832c imaging studies, animals were euthanized, and organs of interest removed and assessed for radioactivity. For all biodistribution studies, specific uptake for each tissue was measured with background and decay correction and expressed as percent injected dose per gram of tissue (% ID/g) as calculated by normalization to the total activity injected.

For data set [6], the target named is T1, Recombinant human CD206 (Homo sapiens, UniProt P22897).
T1 construct: purchased R&D systems 2534-MR-050
T1 sequence (P22897 19-1456): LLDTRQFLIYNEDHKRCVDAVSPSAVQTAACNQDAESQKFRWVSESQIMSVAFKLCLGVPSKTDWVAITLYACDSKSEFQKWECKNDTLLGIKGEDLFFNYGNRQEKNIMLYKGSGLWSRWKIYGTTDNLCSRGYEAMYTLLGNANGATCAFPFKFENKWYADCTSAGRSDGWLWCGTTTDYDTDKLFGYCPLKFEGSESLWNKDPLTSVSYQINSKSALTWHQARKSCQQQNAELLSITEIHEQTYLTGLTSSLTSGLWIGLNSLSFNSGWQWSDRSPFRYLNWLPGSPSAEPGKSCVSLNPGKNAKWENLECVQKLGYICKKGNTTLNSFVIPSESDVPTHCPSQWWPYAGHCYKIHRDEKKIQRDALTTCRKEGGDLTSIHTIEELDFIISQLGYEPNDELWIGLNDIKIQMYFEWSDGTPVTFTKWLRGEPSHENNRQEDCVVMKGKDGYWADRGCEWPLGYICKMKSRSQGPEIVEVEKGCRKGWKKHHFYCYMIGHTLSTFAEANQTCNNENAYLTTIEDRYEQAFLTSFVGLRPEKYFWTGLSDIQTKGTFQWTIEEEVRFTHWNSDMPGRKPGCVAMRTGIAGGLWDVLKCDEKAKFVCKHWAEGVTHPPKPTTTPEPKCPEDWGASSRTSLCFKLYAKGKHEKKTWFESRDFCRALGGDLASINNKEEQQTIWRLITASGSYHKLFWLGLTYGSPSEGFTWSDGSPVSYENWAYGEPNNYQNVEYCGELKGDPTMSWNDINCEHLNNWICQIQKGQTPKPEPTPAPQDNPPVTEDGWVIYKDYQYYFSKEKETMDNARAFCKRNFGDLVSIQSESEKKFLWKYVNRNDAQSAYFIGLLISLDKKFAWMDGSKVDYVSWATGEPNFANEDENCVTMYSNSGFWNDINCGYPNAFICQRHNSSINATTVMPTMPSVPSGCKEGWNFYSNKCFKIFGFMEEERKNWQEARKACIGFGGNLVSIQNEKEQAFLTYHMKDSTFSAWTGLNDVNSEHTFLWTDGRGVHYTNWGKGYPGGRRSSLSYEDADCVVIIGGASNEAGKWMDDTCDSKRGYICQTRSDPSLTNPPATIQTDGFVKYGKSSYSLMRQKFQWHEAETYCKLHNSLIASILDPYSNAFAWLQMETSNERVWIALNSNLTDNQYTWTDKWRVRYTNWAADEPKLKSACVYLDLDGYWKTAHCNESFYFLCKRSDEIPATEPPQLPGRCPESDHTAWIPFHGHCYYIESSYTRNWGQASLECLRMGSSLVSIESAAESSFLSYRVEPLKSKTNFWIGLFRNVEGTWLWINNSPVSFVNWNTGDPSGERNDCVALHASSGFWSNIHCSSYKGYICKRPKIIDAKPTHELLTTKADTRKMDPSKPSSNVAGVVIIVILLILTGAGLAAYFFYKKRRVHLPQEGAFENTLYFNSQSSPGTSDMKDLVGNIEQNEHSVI
The data set is described as follows: Surface plasmon resonance (Biacore T200), immobilized CD206. Type of data set: binding. Conditions: all concentrations (0.5 uM-10 uM). How it is done:
All SPR experiments were carried out using a Biacore T200 Biosensor instrument (GE Health Life Sciences, Piscataway, NJ). CM5 sensor chips, amine coupling reagents, and running buffers used in the binding analysis were obtained from Cytivalifesciences (Marlborough, MA).
Recombinant human CD206 was purchased from R&D systems (Catalog #2534-MR-050). CD206 protein was immobilized onto a CM5 sensor chip surface via standard amine coupling chemistry, using HBS-P+ running buffer (10 mM HEPES, [pH 7.4], 150 mM NaCl, and 0.05% Surfactant 20) at 25° C., as per manufacturer recommendation (Cytiva, Marlborough, MA). Briefly, carboxyl groups on the sensor chip flow cell surface (flow cell 2) were activated by injecting an equal mixture of 200 mM N-hydroxysuccinimide (NHS) and 50 mM 1-ethyl-3-(3-dimethylaminopropyl) carbodiimide hydrochloride) (EDC) at a flow rate of 10 μl/min. CD206 (25 μg/mL) was then diluted in 10 mM sodium acetate buffer pH 5.0 and injected over the surface at a flow rate of 10 μl/min until a level of 5000 resonance units (RU) was reached. This was followed by a 7 min injection of 1 M ethanolamine (pH 8) to block excessive reactive esters and wash away any non-covalently bound CD206. A blank flow cell surface (flow cell 1) was similarly activated with no protein injection, and used as a reference to subtract non-specific binding and bulk refractive index. […]
(In general: Surface plasmon resonance follows binding to a sensor surface in real time, without labels.)

Data set [7] has as its system tumor associated macrophages (TAMs). To be noted: cited from earlier work.
Data set [8] concerns PDL1 unresponsive melanoma. To be noted: PDL1 unresponsive melanoma murine models; cited from earlier work.
Data set [9] relates to CD206 macrophages. To be noted: through interactions with CD206 macrophages; cited from earlier work.

A word on the tissue uptake: it is the percentage of the injected dose found per gram of tissue.

Take `N=C(N)NCCC[C@H](NC(=O)[C@H](Cc1c[nH]c2ccccc12)NC(=O)[C@H](CCCCN)NC(=O)[C@H](Cc1ccccc1)NC(=O)CNC(=O)CNC(=O)[C@H](Cc1ccccc1)NC(=O)[C@H](CCCCN)NC(=O)[C@H](Cc1c[nH]c2ccccc12)NC(=O)[C@H](CCCNC(=N)N)NC(=O)CN1CCN(CC(=O)O)CCN(CC(=O)O)CCN(CC(=O)O)CC1)C(=O)O` [[^68Ga]RP832c, metal not drawn] ({DOTA}-RWKFGGFKWR-OH): the “free ^68Ga (^68Ga remained complexed)” value in data set [1] is listed as “less than one percent free ^68Ga”. For the same molecule, in [2], the SUV at 0.25 h is 0.25 SUV. The SUV at 40 min in data set [2] was found to be 0.5 SUV. Besides, the “highest signal in MIP images” value in data set [3] was “bladder”. Also, the “highest signal in maximum intensity projections (MIPs)” value in [4] was “kidneys and bladder”. The tissue uptake at 1.5 h was determined as 1.66 %ID/g in data set [5] (15 uCi, liver); 0.67 %ID/g in data set [5] (15 uCi, spleen); 0.4 %ID/g in data set [5] (15 uCi, tumor); 1.46 %ID/g in [5] (liver); 0.91 %ID/g in data set [5] (spleen); 0.57 %ID/g in data set [5] (tumor).
Consider “DOTA-MART-1: MART-1 peptide with DOTA, not radiolabeled, control in SPR”, for which the binding sensorgram result in [6] is on record as “no binding”.
Turning to RWKFGGFKWR [RP-832c], the “effect on population of tumor associated macrophages” value in [7] is reported as “shift the population of tumor associated macrophages (TAMs) from M2 (pro-tumor) towards a M1 phenotype (anti-tumor)”. Further, the “effect on tumor resistance” value in data set [8] was “shown promise in inhibiting tumor resistance”. Besides, the “effect on bleomycin induced pulmonary fibrosis” value in data set [9] is recorded as “inhibit bleomycin induced pulmonary fibrosis”.
